# IntAct's records for PubMed 18547146
# B1: BH3-interacting domain death agonist (Mus musculus), P70444 (parent)
# chain: MDSEVSNGSGLGAEHITDLLVFGFLQSSGCTRQELEVLGRELPVQAYWEADLEDELQTDGSQASRSFNQGRIEPDSESQEEIIHNIARHLAQIGDEMDHNIQPTLVRQLAAQFMNGSLSEEDKRNCLAKALDEVKTAFPRDMENDKAMLIMTMLLAKKVASHAPSLLRDVFHTTVNFINQNLFSYVRNLVRNEMD
# Variants of: B1
# Details: with BCL2L1, Q07817-1
# Chain of BCL2L1, Q07817-1 (Q07817 whole entry): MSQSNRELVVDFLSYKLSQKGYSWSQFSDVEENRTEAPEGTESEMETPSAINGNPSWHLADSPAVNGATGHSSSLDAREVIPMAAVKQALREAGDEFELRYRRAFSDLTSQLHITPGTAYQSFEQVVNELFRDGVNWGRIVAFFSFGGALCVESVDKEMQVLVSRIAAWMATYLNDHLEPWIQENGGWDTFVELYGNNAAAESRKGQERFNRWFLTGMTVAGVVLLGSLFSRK
row,Variant,effect of a mutation on the interaction
1,M97A;D98A,disrupting interaction
